The source of these data is patent US20080069777A1.

As usually defined, the IC50 is the midpoint of a concentration-inhibition curve.

Test [1] concerns the target whole LFA-1 in which the α subunit contains an I-domain in the high affinity locked open state, on cells (HA cells) (human) (UniProt P05107). Kind of test: inhibition of ICAM binding to HA cells, Guava analysis; fourth experiment; fourth experiment.
For test [2] the target is unchanged. Kind of test: inhibition of ICAM binding to HA cells, Guava analysis; second experiment; second experiment, first lot of D2-57 IgG.
The target is the same in test [3]. Kind of test: cell-based or functional assay.
Test [4] shares this target. Kind of test: inhibition of ICAM binding to HA cells, Guava analysis; second experiment; second experiment, second lot of D2-57 IgG.
The target is the same in test [5]. Kind of test: inhibition of ICAM binding to HA cells, Guava analysis; third experiment; third experiment.
Test [6] shares this target. Kind of test: inhibition of ICAM binding to HA cells, Guava analysis; first experiment; first experiment.
Test [7] concerns the target whole LFA-1 in which the α subunit contains an I-domain in the low affinity locked closed state, on cells (LA cells) (human) (UniProt P05107). Kind of test: phage ELISA, LA form of LFA-1, with Mg2+. (In general: In an ELISA, binding on a coated surface is turned into a signal by an enzyme label.)
Test [8] addresses whole LFA-1 in which the α subunit contains an I-domain in the high affinity locked open state, on cells (HA cells) (human) (UniProt P05107). Kind of test: phage ELISA, HA form of LFA-1, with Mg2+; phage ELISA on HA cells, with Mg2+.
Test [9] addresses whole LFA-1 in which the α subunit contains an I-domain in the low affinity locked closed state, on cells (LA cells) (human) (UniProt P05107). Kind of test: phage ELISA, LA form of LFA-1, without Mg2+.
Test [10] deals with whole LFA-1 in which the α subunit contains an I-domain in the high affinity locked open state, on cells (HA cells) (human) (UniProt P05107). Kind of test: phage ELISA, HA form of LFA-1, without Mg2+; phage ELISA on HA cells, without Mg2+; signal at background.
For test [11] the target is unchanged. Kind of test: ICAM-1 blocking assay on HA cells, soluble Fab, flow cytometry; ligand ICAM-1/SV-PE; soluble Fab, ICAM-1 blocking on HA cells, FACS. (In flow cytometry, cells or beads pass a laser one at a time.)

B1: D2-57 IgG1 (antibody, V domains shown)
VH: EVQLLESGGGLVQPGGSLRLSCAASGFTFSRYVMWWVRQAPGKGLEWVSYIWPSGGNTYYADSVKGRFTISRDNSKNTLYLQMNSLRAEDTAVYYCASSYDFWSNAFDIWGQGTMVTVSS
VL: DIQMTQSPSSLSASVGDRVTITCRASQSIGSYLNWYQQKTGKAPKALIYAASSLQSGVPSRFSGSGSGTDFTLTISSLQLEDFATYYCQQSYSTPSFGQGTKVEIKR
As for B1, the IC50 in test [1] was found to be 680 pM; in test [2], 590 pM; in test [4], 620 pM; in test [5], 240 pM; in test [6], 180 pM. In [3], this molecule returned an IC50 for inhibition of HA cell binding to keratinocytes of 1000 pM.

B2: D2-57 Fab (Fab, V domains shown)
VH: EVQLLESGGGLVQPGGSLRLSCAASGFTFSRYVMWWVRQAPGKGLEWVSYIWPSGGNTYYADSVKGRFTISRDNSKNTLYLQMNSLRAEDTAVYYCASSYDFWSNAFDIWGQGTMVTVSS
VL: DIQMTQSPSSLSASVGDRVTITCRASQSIGSYLNWYQQKTGKAPKALIYAASSLQSGVPSRFSGSGSGTDFTLTISSLQLEDFATYYCQQSYSTPSFGQGTKVEIKR
On to B2, for which the ELISA signal (arbitrary units) is 0.13 in test [7], 0.68 in [8], 0.07 in test [9] and 0.09 in test [10]. This molecule yielded a concentration for half-maximal inhibition (IC50) in test [11] of 11500 pM.
